Experimental data as given in publication PMC10755785 (The Journal of Biological Chemistry, 2023).
One block for each molecule: values may come before it.

Experiments:
[1] = biological target: σ^s (RpoS), His-tagged (Escherichia coli) (UniProt P13445); assay: pull-down
[2] = biological target: σ^s (RpoS), His-tagged (Escherichia coli) (UniProt P13445); assay: SEC
σ^s (RpoS), His-tagged = σ^s (RpoS), His-tagged (Escherichia coli, UniProt P13445 1-330); assay: pull-down
σ^s (RpoS), His-tagged, sequence (P13445 whole entry): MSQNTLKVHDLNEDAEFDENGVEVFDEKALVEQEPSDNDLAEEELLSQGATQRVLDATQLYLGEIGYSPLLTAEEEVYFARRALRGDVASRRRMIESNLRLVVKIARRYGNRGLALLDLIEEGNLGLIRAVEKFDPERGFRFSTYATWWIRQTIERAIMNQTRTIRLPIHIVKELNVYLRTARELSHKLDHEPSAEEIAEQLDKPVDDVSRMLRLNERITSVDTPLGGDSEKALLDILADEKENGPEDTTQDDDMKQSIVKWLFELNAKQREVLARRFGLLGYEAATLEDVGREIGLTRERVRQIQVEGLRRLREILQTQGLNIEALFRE

σ^s (RpoS), His-tagged (Escherichia coli), sequence (P13445 whole entry): as above

fold increase in pull-down efficiency with beryllofluoride against without [1]: 5 fold
Molecule: RssB (wild type, full length) (from UniProt P0AEV1 1-337) (natural protein)

stoichiometry N [2]: 1 σ^s:RssB
Molecule: RssB∼P (RssB phosphorylated with acetyl phosphate) (from UniProt P0AEV1 1-337) (natural protein)

percent of WT binding (σ^s (RpoS), His-tagged): ~50 % of WT
B1: RssB^F129A;S131A (natural protein, Escherichia coli)
chain: MTQPLVGKQILIVEDEQVFRSLLDSWFSSLGATTVLAADGVDALELLGGFTPDLMICDIAMPRMNGLKLLEHIRNRGDQTPVLVISATENMADIAKALRLGVEDVLLKPVKDLNRLREMVFACLYPSMANARVEEEERLFRDWDAMVDNPAAAAKLLQELQPPVQQVISHCRVNYRQLVAADKPGLVLDIAALSENDLAFYCLDVTRAGHNGVLAALLLRALFNGLLQEQLAHQNQRLPELGALLKQVNHLLRQANLPGQFPLLVGYYHRELKNLILVSAGLNATLNTGEHQVQISNGVPLGTLGNAYLNQLSQRCDAWQCQIWGTGGRLRLMLSAE
